Measured values as given in a protein production outcome set (Wang et al. 2014).

Test: label from the status in PepcDB records

Sequence: DSFKNLENKYDGKIGIYTLNTDDKTNIKYNESYHFPICSVFKFLLVGAILDYDMHNQGFLDKKIPINQDDIGKLGYAPITAKNVGKTLTISQLNYAAILSDSPASNILVRELGGLQNLNKFIKKLGDNDTIITADEPEINYTQPHSNINKTTPKAITKDIYKLAFGNILDKKHKDIFIKYLQDNNTGANRIAFSMPKDWIIGDKTGTCGQYAATNDVAIIWPKNQQPIALGILYTNPNDKNAPSNEEIIQQAAKLIANDLTNTYK
- protein production: not failed

Sequence: MPLTDTALKALKPRDRIYSVADERGLSVEVYPTGGIVWRFRYRLAGRYEKLTLGKYPALSLRNARLKRDEAASLVAMGTSPARQKQLAKVTAADAMTVRDFAERFFREIQSRDRKDSTMPRRYLDKDILPFVGDKPMREVTAEEIRSLIWRKKEQGFDATAGQIRGVLKRLCDYAVTCGLMPTNPVLALPMRHVYKAVSRDRALSPDEIRLFLRAVWASRIRRQFKLALHLILLTMVRKSELLLARWDHVHLDQAQWHIPAEHSKTGKPHIVYLSRQAVVLFEALRVLAGGSALVMPGSGTLTRPFAHNALNHALGKAMQWQGIHAFTIHDLRRTASTWLHEHGWASDVVEKALNHSIGGVRGVYNRAEYADQRRQMLQCWADFIEKQLKTDHLLMVCHTELDGAKPGTP
- protein production: failed

Sequence: MNGHAFFFAGVRLTALPSGALWWPAERLLCVSDLHLGKAERLARRGGTLLPPYETQATLARLEADLEATGAERVLCLGDSFDDGAAADGLAEPERLWLRRLMTGRDWIWILGNHD
- protein production: failed

Sequence: MLELCSIASGSSGNCICVGTDDCHVLIDAGISGKKIENGLNEFDMTATDMHGILVTHEHIDHIAGLGVMARRYHMPIYATKATIGAIKCTKSVGNIDDELFHPIEAGVDFTIGDIEFEPLHISHDAADPVAYRFKNENHAMAVVTDLGTYDDALVSKLQNLDGLLLEANHDINMLQTGAYPYPLKRRIMGDSGHLSNERSGQLLCELLHDKFGSVILGHLSKENNYEKLAYEAVRLEVTMGDNPYKASDFPMYVAKRDRASDRIAVE
- protein production: failed

Sequence: MQTVPSSDGTPIAFERSGSGPPVVLVGGALSTRAGGAPLAERLAPHFTVICYDRRGRGDSGDTPPYAVEREIEDLAAIIDAAGGAAFVFGMSSGAGLSLLAAASGLPITRLAVFEPPYAVDDSRPPVPPDYQTRLDALLAEGRRGDAVTYFMTEGVGVPPDLVAQMQQAPMWPGMEAVAHTLPYDHAVMGDNTIPTARFASISIPTLVMDGGASPAWIRHTAQELADTIPNARYVTLENQTHTVAPDAIAPVLVEFFTR
- protein production: not failed

Sequence: MKKLTSLFPLLFLIPLLASCAEEKQVYIVYFGEHKGDKAFHEIEEHHHSYLQSVKESEEDARASLLYSYKHSINGFAAELTPDQASKLEKLAEVVSVFKSHPRKYEAHTTRSWEFVGLEEEETDSDVPRRKNDADDRFRVGRNFLKKAKHGDGIIVGVLDSGVWPESKSFNDKGMGPVPKSWKGICQTGVAFNSSHCNRKIIGARYYVKGYERYYGAFNATANKDFLSPRDPDGHGSHTASTAVGRRVLGASALGGFAKGSASGGAPLARLAIYKACWAKPNAEKVEGNICLEEDMLAAIDDAIADGVHVISISIGTTEPFPFTQDGIAMGALHAVKRNIVVAASAGNSGPKPGTLSNLAPWIITVGASTLDRAFVGGLVLGNGYTIKTDSITAFKMDKFAPLVYASNVVVPGIALNETSQCLPNSLKPELVSGKVVLCLRGAGSRIGKGMEVKRAGGAGMILGNIAANGNEVPSDSHFVPTAGVTPTVVDKILEYIKTDKNPKAFIKPGKTVYKYQAAPSMTGFSSRGPNVVDPNILKPDITAPGLYILAAWSGADSPSKMSVDQRVAGYNIYSGTSMSCPHVAGAIALLKAIHPKWSSAAIRSALMTTAWMTNDKKKPIQDTTGLPANPFALGSGHFRPTKAADPGLVYDASYRAYLLYGCSVNITNIDPTFKCPSKIPPGYNHNYPSIAVPNLKKTVTVKRTVTNVGTGNSTSTYLFSVKPPSGISVKAIPNILSFNRIGQKQRFKIVIKPLKNQVMNATEKGQYQFGWFSWTDKVHVVRSPIAVSLA
- protein production: failed

Sequence: MSSQELVTLNVGGKIFTTRFSTIKQFPASRLARMLDGRDQEFKMVGGQIFVDRDGDLFSFILDFLRTHQLLLPTEFSDYLRLQREALFYELRSLVDLLNPYLLQPRPALVEVHFLSRNTQAFFRVFGSCSKTIEMLTGRITVFTEQPSAPTWNGNFFPPQMTLLPLPPQRPSYHDLVFQCGSDSTTDNQTGVRYVSIKPDNRKLANGTNVLGLLIDTLLKEGFHLVSTRTVSSEDKTECYSFERIKSPEVLITNETPKPETIIIPEQSQIKK
- protein production: failed

Sequence: MDDQGCPRCKTTKYRNPSLKLMVNVCGHTLCESCVDLLFVRGAGNCPECGTPLRKSNFRVQLFEDPTVDKEVEIRKKVLKIYNKREEDFPSLREYNDFLEEVEEIVFNLTNNVDLDNTKKKMEIYQKENKDVIQKNKLKLTREQEELEEALEVERQENEQRRLFIQKEEQLQQILKRKNKQAFLDELESSDLPVALLLAQHKDRSTQLEMQLEKPKPVKPVTFSTGIKMGQHISLAPIHKLEEALYEYQPLQIETYGPHVPELEMLGRLGYLNHVRAASPQDLAGGYTSSLACHRALQDAFSGLFWQPS
- protein production: not failed

Sequence: MAVFVALGAFLMTLAGGWTAQRVTDRRHLVLGLAGGLMLGVVGLDLLPEALEAAGDEVFGVPAALLLFVAGFLLAHLVERLLAARRAAHGADEHEHRSPEVGLTAAAAMVGHSAMDGVAIGAAFQVGGGMGAAVAMAVIAHDFADGFNTYTLTSLYGNARRRAVAMLVADAIAPVLGASSTLLFTIPEGALGAYLGLFGGVLLYLAAAEILPEAHHEHPARSTLLCTVAGAAFIWLVVGIAE
- protein production: failed

Sequence: MKFDDSKPIYKQIVHYIHTEIVTGTYEAGDKLLSVRELATKLEVNPTTIQRAYAELEEAGIIFTVRGTGKYLTEDKRRIEQLENHIAKQLTENFISEMSKLGINKEKIIAWVKKVEEVEVNASGK
- protein production: failed

Sequence: MVEQLVSNAAILLAGFYIISLVYKEPITKELSTNKKIVIGIWAGLLGFALMVFGIPISNNVIVDLRHIPIIMVGFYGGPIPAIVSAIIISASRFLLSVNSAAIMAAVVMMLIGIITAIFGKRIEKFKIWGVFILNIIACSFVVINLHLILARESHFWINMTVFVLIALVIGAVSAGLMSNMIKSKQLFQKYEQDSTLDYLTKLSNVRQFDEKINHVMDAGSRQVTLMLIDIDYFKNINDTYGHDAGDAILKQLAIILKRNTSDGSEAFRNGGEEFSIVLLDCPIEKGNFFAEQVRRETEEYDFMIPSGQVVKITISVGVSSSKDGANTSEGLFKSADEALYKAKLTGRNQVCIADGN
- protein production: failed

Sequence: MSDVPHLRFPEFSGEWEEHTLSEYLEFKNGLNPDAKRIGSGLPFISVMDILSEGVINYDNIRGKVNATEKEIECFGVKDGDLLFQRSSETLEDVGRANVYMDNRTAIYGGFVIRGRKIGNYDPLFFKYLLATPLARKRTCRMGAGAQHFNIGQEGLSKISLYFPSIEEQRKIAEFLSLIDERIATQNKIIEDLKKLKSAISLNVLHSDKWEQFKIKDIAQIGRGRVISSIEIGQQKSPTYPVYSSQTSNDGIMGYLDDYMFEGEYISWTTDGANAGTVFYRNGKFNCTNVCGLLKLRKEFDTHFVSLVLAEATKKYVSINLANPKLMNNTMGNIQIRLPKLEEQKRISIVFRVLQRLWTVHNSLLTEYTKQEQYLLSQMFILEHHHHHH
- protein production: failed

Sequence: MVIQIVIISPGDGNLSPAHLLHRFALSLLESLRGKKMMFVGTEEMYLSLICLLHSQIPENYKSMDYLWITHRLLSQDLEILVDYNAMIEFYWAPFLLESNSDNAIVDIVSDRIMRKGLINKHGKHWRGADIVVESSFKDGNKRIVEMESEDAYLMTMGKWVKKSMDPLRTKVFFSTMSPTHYKIEDWGGEQGKNFYNQTTPIQDMNHWPSDCSKTLMKVIGEELDQRADFLVTVLNITQLTSYRKDAHTSIYKKPWSPYDEGSASKSG
- protein production: failed

Sequence: MERSIGFGQALKLFWKNYVNFKGRSRRSEYWFMALWNIIFMMPALILYIIGLIMTVSGAASSSEELVAIGVILLFLSICYALIYSLATLIPGWALLIRRFHDTGRTMLMPLIYLGVIVISYPVLFVVNIQDPEYNNPVYIIFFAIIFLVYIALGIYMLVICCLDSERKTNKYGASHKYGNHIKSSTNTYANQDAPIHEDTNVKHVNSEENAFSEEVNTSDENATKKDDNFKY
- protein production: failed

Sequence: MIEIKQVKTQDEVNYTFVEKLMHTAFPQEERRDTVQQREYSDNNPRFCNNIILENGNSIGMISYWTMGDFYYIEHFAIDPSLRNGGYGKRVLEMIKKQLKGPIVLEVEEPNDEMSTRRIHFYKRLEFTLHKKPYIQPPYRKGDSGLPMLLMTYGDIDMESDFEKVKKTLYKEVYGQEI
- protein production: not failed

Sequence: MLKPLVLSDSSPVRPRDLTLLDQEEAGLVSTFINRPPIDIFKILPSKDDPDWPSFQQILSKFPDTEHLCPDGGLVNNSFILDIVLPQKWIDHRVCNPRFFQSIVSTTCYFMGFVFYADLNLGFMHFSPFHIAII
- protein production: failed

Sequence: MSGSAADPPSPDRLAGVFSVSSVRRTDGTVQYLGNPLVPPDAVAEQLRPVFRQRGYDVRLEELGPESATGTTVTSNGETTVVDDPGANDSIAPGGAVNTRPGQYALVAEPVGTDTGGVPWLNIGLLLATIASTLYVGASAWYYIPVAKNPLRVFEAWPFMVAMLGVLGIHELGHYAAARYHGVDVTLPYFIPFPSYLGTMGAVINIRGRIPDRTALFDIGVAGPLAGLVATTIVTVIGLSIDPITVPERVANSDTGVIITFNYPLLFQALEALVNALGLGTEVGPGESVHPIVFAGWAGMFFTFLNLLPVGQLDGGHIVRSIVGRRQETIAAAVPGALFALAGYLYFTRDPPPVGFGVWGLWVFWGLFATGLAYAGPARPTVDTALDRRRALLGLFTFLLGIACFTPVPFEISAV
- protein production: failed

Sequence: MSEKPWVSTQPLVTKRGLPLNIDRDIAYRPASAVSLSEVAQFITRETGLPVVVAPDALNPSILSSRPGNSGAAAAPPAVTMSNPDNLAALMPTGLAGSLPSGARSLESELLSGTPGLISGIKFSGPVSALLNQVTSRLGLSWHYDPQLQGARITYFDTRTFDVWAFGDDQVIESVVKSGLITSTGSGSNGSGGTSSGTGASGDSGSNQSTTVQIKTSLLSDIENNVKAMLSTQPAGRIFLSRSTGTLTVSDRPEVLNRIASYLQSTNRNITRQVLFNVKIFEVNFTDRDQTAVNWKAVYKSVSGRWGLSLANKVAGISTDAISGSVSILDTSSSPWAGSSAVIQALSEQGRISDVRSPSITTLNLQPAPIQIGNVKSYVASSSTTTTASVGSSTSLTPATITSGFNMMLLPKIIDRDNMLLMISISMSSKPTFTTFTSNGSSVQTADFDTKNAAPKVLLRSGQTLVLTGFEENTENADKTGVGDASFFGLGGSRTRSSLEHHHHHH
- protein production: failed

Sequence: MKVKIYTRNGCPYCVWAKQWFEENNIAFDETIIDDYAQRSKFYDEMNQSGKVIFPISTVPQIFIDDEHIGGFTELKANADKILNKK
- protein production: not failed

Sequence: MRERLFANVRLRLSGGRQAAYISRAMSAAPDLRDPPPAHVRRLDPILVDRIAAGEVVERPASAVKELVENAIDAGARSIEVAIEGGGRRLIRVVDDGIGMGPDDLALAVERHATSKLPDGDLTRIGSLGFRGEALPSIGAVSRLTITSRTADGEGVSLTLDSGVKGPVRPAPASRGTRIEVTELFAATPARLKFLKTDRAETAAVSEILRRLAVAQPRIRFTLRTESGSPTVFPAESEPGPAALLRRLGAVLGPDFPGNAVPVDMAREGFALAGHVGLPTFHRGAASHIHFVVNGRPVRDRLLLGAVRGAYADTMSSDRHPVLALHLTCDPALVDVNVHPAKTELRFREPGLVRALIVSAIHEALRRAGARSSSTGTQAVLDALRAGAGMGSAPPMAAGVGRFAVHSGASTASALNPRPASRLFSGPSVAAPAGYRPAPRPAFTEDHPGFAETPQALFSADLAPPGADLRPEPEAVSEAETHPEAHPLGAARAQIHETYIVAQTRDGIVLVDQHAAHERLVYERLKSERAGGGVLAQGLLIPDVVEMAPEEADRLVEAAPELERLGLTLEAFGPGAVLVRSVPSALAGGSVKGLVLDVLDALAASGVEEGGPAGAGDPDPVSRRLDAILSRMSCHGSIRAGRRLKPEEMNALLREMEATPLSGSCNHGRPTFVSLGLADIERLFGRR
- protein production: failed
